According to publication doi:10.1101/2020.06.17.157982:

Biological target: biotinylated human ACE2 ectodomain, which contains its natural dimerization domain (ACROBiosystems AC2-H82E6) (human) (UniProt Q9BYF1)
Assay: FACS

Sequence of biotinylated human ACE2 ectodomain, which contains its natural dimerization domain (ACROBiosystems AC2-H82E6) (human) (Q9BYF1 18-740): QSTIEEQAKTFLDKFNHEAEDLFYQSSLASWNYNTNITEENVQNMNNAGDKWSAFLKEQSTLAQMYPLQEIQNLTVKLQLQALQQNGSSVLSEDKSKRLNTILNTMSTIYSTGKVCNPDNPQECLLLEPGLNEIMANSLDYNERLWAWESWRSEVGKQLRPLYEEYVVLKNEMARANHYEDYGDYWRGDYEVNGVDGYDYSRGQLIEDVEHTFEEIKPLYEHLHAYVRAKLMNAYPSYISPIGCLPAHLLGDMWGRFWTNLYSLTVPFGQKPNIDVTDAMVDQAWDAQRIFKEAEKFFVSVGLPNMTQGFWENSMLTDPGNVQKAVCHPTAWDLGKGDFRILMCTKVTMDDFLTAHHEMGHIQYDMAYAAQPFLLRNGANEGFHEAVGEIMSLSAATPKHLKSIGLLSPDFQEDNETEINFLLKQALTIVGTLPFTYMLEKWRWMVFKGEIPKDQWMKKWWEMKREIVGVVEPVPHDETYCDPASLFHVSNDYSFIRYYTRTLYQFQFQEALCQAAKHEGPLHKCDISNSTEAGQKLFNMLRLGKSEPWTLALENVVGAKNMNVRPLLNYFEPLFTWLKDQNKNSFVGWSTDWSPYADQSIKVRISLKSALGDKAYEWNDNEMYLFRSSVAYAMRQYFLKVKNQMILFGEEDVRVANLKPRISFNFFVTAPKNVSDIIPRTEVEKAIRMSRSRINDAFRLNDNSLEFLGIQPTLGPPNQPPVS

Row | Substance | Kd
1 | WIV1 RBD, yeast-displayed | 0.017 nM
2 | ZC45 RBD, yeast-displayed | > 1000 nM
3 | ZXC21 RBD, yeast-displayed | > 1000 nM
